For this test, the target named is SARS-CoV-2 2P S ectodomain trimer (SARS-CoV-2 (YP_009724390), UniProt P0DTC2, stabilised). As to the kind of experiment: BLI.

B1: B6 monoclonal antibody (recombinant IgG with human constant regions) (antibody, V domains shown)
VH: EVQLQQSGPVLVKPGASVRMSCKASGYTITDYYLNWVKQSHGKSLEWLGVLNPYSGGSLYSQTFKGKATLTVDRSSSTAYLELNSLTSEDSAVYYCARQLGRGNGLDYWGQGTSVTVSS
VL: NIMMTQSPSSLAVSAGEKVTMSCKSSQSVLHSSDQKNYLAWYQQKPGQSPKLLIYWASTRESGVPDRFTGSGSGTDFTLTISSVQAEDLAVYFCHQYLSSYTFGGGTKLEIK
Turning to B1, the binding result is recorded as “binds”.

For the origin of these results see article PMC7781312 (bioRxiv, 2021).
